Measured values reported in patent US20160264649A1.

How the values were obtained:
Test in all cases: cell-based or functional assay
[1] = biological target: HIV-1 Env of isolate 92UG046 (subtype D) (HIV-1)
[2] = biological target: HIV-1 Env of pseudovirus isolate MGRM-G-013 (subtype G) (HIV-1)
[3] = biological target: HIV-1 Env of isolate MGRM-F1-008 (subtype F) (HIV-1)
[4] = biological target: HIV-1 Env of isolate MGRM-D-024 (subtype D) (HIV-1)
[5] = biological target: HIV-1 Env of pseudovirus isolate MGRM-G-024 (subtype G) (HIV-1)
[6] = biological target: HIV-1 Env of isolate MGRM-D-001 (subtype D) (HIV-1)
[7] = biological target: HIV-1 Env of isolate 92UG114 (subtype D) (HIV-1)
[8] = biological target: HIV-1 Env of isolate MGRM-F1-014 (subtype F) (HIV-1)
[9] = biological target: HIV-1 Env of pseudovirus isolate MGRM-G-017 (subtype G) (HIV-1)
[10] = biological target: HIV-1 Env of isolate MGRM-D-021 (subtype D) (HIV-1)
[11] = biological target: HIV-1 Env of isolate MGRM-F1-023 (subtype F) (HIV-1)
[12] = biological target: HIV-1 Env of isolate MGRM-D-003 (subtype D) (HIV-1)
[13] = biological target: HIV-1 Env of pseudovirus isolate MGRM-G-027 (subtype G) (HIV-1)
[14] = biological target: HIV-1 Env of pseudovirus isolate MGRM-G-014 (subtype G) (HIV-1)
[15] = biological target: HIV-1 Env of pseudovirus isolate MGRM-G-011 (subtype G) (HIV-1)
[16] = biological target: HIV-1 Env of isolate MGRM-D-012 (subtype D) (HIV-1)
[17] = biological target: HIV-1 Env of pseudovirus isolate MGRM-G-019 (subtype G) (HIV-1)
[18] = biological target: envelope of aMLV pseudovirus (negative control)
[19] = biological target: HIV-1 Env of pseudovirus isolate MGRM-G-009 (subtype G) (HIV-1)
[20] = biological target: HIV-1 Env of isolate MGRM-F1-013 (subtype F) (HIV-1)
[21] = biological target: HIV-1 Env of isolate MGRM-F1-021 (subtype F) (HIV-1)
[22] = biological target: HIV-1 Env of isolate MGRM-F1-006 (subtype F) (HIV-1)
[23] = biological target: HIV-1 Env of isolate MGRM-D-018 (subtype D) (HIV-1)
[24] = biological target: HIV-1 Env of isolate MGRM-F1-015 (subtype F) (HIV-1)
[25] = biological target: HIV-1 Env of isolate MGRM-D-011 (subtype D) (HIV-1)
[26] = biological target: HIV-1 Env of isolate MGRM-D-019 (subtype D) (HIV-1)
[27] = biological target: HIV-1 Env of isolate MGRM-D-020 (subtype D) (HIV-1)
[28] = biological target: HIV-1 Env of isolate MGRM-D-022 (subtype D) (HIV-1)
[29] = biological target: HIV-1 Env of isolate MGRM-D-002 (subtype D) (HIV-1)
[30] = biological target: HIV-1 Env of isolate MGRM-F1-018 (subtype F) (HIV-1)
[31] = biological target: HIV-1 Env of pseudovirus isolate MGRM-G-006 (subtype G) (HIV-1)
[32] = biological target: HIV-1 Env of isolate MGRM-F1-020 (subtype F) (HIV-1)
[33] = biological target: HIV-1 Env of isolate MGRM-D-004 (subtype D) (HIV-1)
[34] = biological target: HIV-1 Env of isolate MGRM-D-016 (subtype D) (HIV-1)
[35] = biological target: HIV-1 Env of isolate MGRM-D-029 (subtype D) (HIV-1)
[36] = biological target: HIV-1 Env of isolate 92UG024 (subtype D) (HIV-1)
[37] = biological target: HIV-1 Env of isolate 92UG005 (subtype D) (HIV-1)
[38] = biological target: HIV-1 Env of pseudovirus isolate MGRM-G-004 (subtype G) (HIV-1)
[39] = biological target: HIV-1 Env of pseudovirus isolate MGRM-G-028 (subtype G) (HIV-1)
[40] = biological target: HIV-1 Env of pseudovirus isolate MGRM-G-016 (subtype G) (HIV-1)
[41] = biological target: HIV-1 Env of isolate MGRM-D-014 (subtype D) (HIV-1)
[42] = biological target: HIV-1 Env of isolate MGRM-D-005 (subtype D) (HIV-1)
[43] = biological target: HIV-1 Env of isolate 98CN006 (subtype CRF08_BC) (HIV-1)
[44] = biological target: HIV-1 Env of pseudovirus isolate MGRM-G-015 (subtype G) (HIV-1)
[45] = biological target: HIV-1 Env of isolate 92UG001 (subtype D) (HIV-1)
[46] = biological target: HIV-1 Env of pseudovirus isolate MGRM-G-001 (subtype G) (HIV-1)
[47] = biological target: HIV-1 Env of isolate MGRM-D-028 (subtype D) (HIV-1)
[48] = biological target: HIV-1 Env of isolate MGRM-D-026 (subtype D) (HIV-1)
[49] = biological target: HIV-1 Env of isolate MGRM-F1-004 (subtype F) (HIV-1)
[50] = biological target: HIV-1 Env of isolate MGRM-F1-022 (subtype F) (HIV-1)
[51] = biological target: HIV-1 Env of isolate MGRM-F1-016 (subtype F) (HIV-1)
[52] = biological target: HIV-1 Env of pseudovirus isolate MGRM-G-025 (subtype G) (HIV-1)
[53] = biological target: HIV-1 Env of isolate MGRM-F1-010 (subtype F) (HIV-1)
[54] = biological target: HIV-1 Env of isolate MGRM-F1-017 (subtype F) (HIV-1)
[55] = biological target: HIV-1 Env of isolate MGRM-D-008 (subtype D) (HIV-1)
[56] = biological target: HIV-1 Env of isolate 98CN009 (subtype CRF07_BC) (HIV-1)
[57] = biological target: HIV-1 Env of isolate MGRM-F1-012 (subtype F) (HIV-1)
[58] = biological target: HIV-1 Env of isolate MGRM-D-013 (subtype D) (HIV-1)

B1: PGT-128 (antibody, V domains shown)
VH: QPQLQESGPTLVEASETLSLTCAVSGDSTAACNSFWGWVRQPPGKGLEWVGSLSHCASYWNRGWTYHNPSLKSRLTLALDTPKNLVFLKLNSVTAADTATYYCARFGGEVLRYTDWPKPAWVDLWGRGTLVTVSS
VL: QSALTQPPSASGSPGQSITISCTGTSNNFVSWYQQHAGKAPKLVIYDVNKRPSGVPDRFSGSKSGNTASLTVSGLQTDDEAVYYCGSLVGNWDVIFGGGTKLTVL
IC50 (neutralization) [1]: > 50 µg/mL | IC50 [2]: 0.995 µg/mL | IC50 (neutralization) [3]: > 50 µg/mL | IC50 (neutralization) [4]: 0.067 µg/mL | IC50 [5]: 0.095 µg/mL | IC50 (neutralization) [6]: 0.138 µg/mL | IC50 (neutralization) [7]: 0.083 µg/mL | IC50 (neutralization) [8]: 0.277 µg/mL | IC50 [9]: 0.319 µg/mL | IC50 (neutralization) [10]: 0.014 µg/mL | IC50 (neutralization) [11]: 0.007 µg/mL | IC50 (neutralization) [12]: 0.019 µg/mL | IC50 [13]: 0.313 µg/mL | IC50 [14]: 0.004 µg/mL | IC50 [15]: 8.21 µg/mL | IC50 (neutralization) [16]: > 50 µg/mL | IC50 [17]: 0.01 µg/mL | IC50 [18]: > 50 µg/mL | IC50 [19]: > 50 µg/mL | IC50 (neutralization) [20]: 12.7 µg/mL | IC50 (neutralization) [21]: > 50 µg/mL | IC50 (neutralization) [22]: 0.763 µg/mL | IC50 (neutralization) [23]: 0.008 µg/mL | IC50 (neutralization) [24]: > 50 µg/mL | IC50 (neutralization) [25]: 0.007 µg/mL | IC50 (neutralization) [26]: > 50 µg/mL | IC50 (neutralization) [27]: 0.011 µg/mL | IC50 (neutralization) [28]: > 50 µg/mL | IC50 (neutralization) [29]: 0.011 µg/mL | IC50 (neutralization) [30]: 0.023 µg/mL | IC50 [31]: > 50 µg/mL | IC50 (neutralization) [32]: 0.355 µg/mL | IC50 (neutralization) [33]: 24.9 µg/mL | IC50 (neutralization) [34]: > 50 µg/mL | IC50 (neutralization) [35]: > 50 µg/mL | IC50 (neutralization) [36]: > 50 µg/mL | IC50 (neutralization) [37]: 0.018 µg/mL | IC50 [38]: > 50 µg/mL | IC50 [39]: 0.008 µg/mL | IC50 [40]: > 50 µg/mL | IC50 (neutralization) [41]: 0.013 µg/mL | IC50 (neutralization) [42]: 0.051 µg/mL | IC50 (neutralization) [43]: 0.015 µg/mL | IC50 [44]: > 50 µg/mL | IC50 (neutralization) [45]: > 50 µg/mL | IC50 [46]: 0.019 µg/mL | IC50 (neutralization) [47]: > 50 µg/mL | IC50 (neutralization) [48]: > 50 µg/mL | IC50 (neutralization) [49]: 0.027 µg/mL | IC50 (neutralization) [50]: 4.54 µg/mL | IC50 (neutralization) [51]: 1.21 µg/mL | IC50 [52]: 0.017 µg/mL | IC50 (neutralization) [53]: 16.7 µg/mL | IC50 (neutralization) [54]: 11.7 µg/mL | IC50 (neutralization) [55]: 0.033 µg/mL | IC50 (neutralization) [56]: 0.025 µg/mL | IC50 (neutralization) [57]: 0.007 µg/mL | IC50 (neutralization) [58]: 8.85 µg/mL

B2: PGT-130 (antibody, V domains shown)
VH: QVQLQESGPGLVKPAETLSLTCSVSGESINTGHYYWGWVRQVPGKGLEWIGHIHYTTAVLHNPSLKSRLTIKIYTLRNQITLRLSNVTAADTAVYHCVRSGGDILYYYEWQKPHWFSPWGPGIHVTVSS
VL: QSALTQPPSASGSLGQSVTISCNGTSSDIGGWNFVSWYQQFPGRAPRLIIFEVNKRPSGVPGRFSGSKSGNSASLTVSGLQSDDEGQYFCSSLFGRWDVVFGGGTKLTVL
IC50 (neutralization) [1]: > 50 µg/mL | IC50 [2]: > 50 µg/mL | IC50 (neutralization) [3]: 0.065 µg/mL | IC50 (neutralization) [4]: > 50 µg/mL | IC50 [5]: 5.84 µg/mL | IC50 (neutralization) [6]: > 50 µg/mL | IC50 (neutralization) [7]: > 50 µg/mL | IC50 (neutralization) [8]: 11.8 µg/mL | IC50 [9]: > 50 µg/mL | IC50 (neutralization) [10]: 0.156 µg/mL | IC50 (neutralization) [11]: 0.05 µg/mL | IC50 (neutralization) [12]: 0.651 µg/mL | IC50 [13]: 4.14 µg/mL | IC50 [14]: 2.23 µg/mL | IC50 [15]: > 50 µg/mL | IC50 (neutralization) [16]: > 50 µg/mL | IC50 [17]: 27.9 µg/mL | IC50 [18]: > 50 µg/mL | IC50 [19]: > 50 µg/mL | IC50 (neutralization) [20]: > 50 µg/mL | IC50 (neutralization) [21]: > 50 µg/mL | IC50 (neutralization) [22]: > 50 µg/mL | IC50 (neutralization) [23]: 0.049 µg/mL | IC50 (neutralization) [24]: > 50 µg/mL | IC50 (neutralization) [25]: 0.019 µg/mL | IC50 (neutralization) [26]: > 50 µg/mL | IC50 (neutralization) [27]: 24.7 µg/mL | IC50 (neutralization) [28]: > 50 µg/mL | IC50 (neutralization) [29]: 0.869 µg/mL | IC50 (neutralization) [30]: > 50 µg/mL | IC50 [31]: > 50 µg/mL | IC50 (neutralization) [32]: 9.73 µg/mL | IC50 (neutralization) [33]: 1.21 µg/mL | IC50 (neutralization) [34]: > 50 µg/mL | IC50 (neutralization) [35]: > 50 µg/mL | IC50 (neutralization) [36]: > 50 µg/mL | IC50 (neutralization) [37]: 0.959 µg/mL | IC50 [38]: > 50 µg/mL | IC50 [39]: 0.074 µg/mL | IC50 [40]: > 50 µg/mL | IC50 (neutralization) [41]: 0.061 µg/mL | IC50 (neutralization) [42]: > 50 µg/mL | IC50 (neutralization) [43]: 0.258 µg/mL | IC50 [44]: > 50 µg/mL | IC50 (neutralization) [45]: > 50 µg/mL | IC50 [46]: 0.0198 µg/mL | IC50 (neutralization) [47]: 0.825 µg/mL | IC50 (neutralization) [48]: > 50 µg/mL | IC50 (neutralization) [49]: 0.023 µg/mL | IC50 (neutralization) [50]: > 50 µg/mL | IC50 (neutralization) [51]: > 50 µg/mL | IC50 [52]: 8.45 µg/mL | IC50 (neutralization) [53]: > 50 µg/mL | IC50 (neutralization) [54]: > 50 µg/mL | IC50 (neutralization) [55]: > 50 µg/mL | IC50 (neutralization) [56]: 0.136 µg/mL | IC50 (neutralization) [57]: > 50 µg/mL | IC50 (neutralization) [58]: 0.429 µg/mL
